The values below come from paper PMC5007650, “Crystal structure of the two-subunit tRNA m^1A58 methyltransferase TRM6-TRM61 from Saccharomyces cerevisiae” (Scientific Reports, 2016).

Data set [1] concerns the target T1, TRM6 from Saccharomyces cerevisiae (S. cerevisiae, UniProt P41814 1-478).
T1 construct: TRM6, non-catalytic subunit of the tRNA m1A58 methyltransferase, S. cerevisiae, full length; A selenomethionine derivative was used for phasing only; also called TRM6 subunit; source: bacteria, expression plasmid pETDuet-TRM6-TRM61, purified as the TRM6-TRM61 complex (Ni2+-NTA, Superdex 200)
T1 sequence (looked up): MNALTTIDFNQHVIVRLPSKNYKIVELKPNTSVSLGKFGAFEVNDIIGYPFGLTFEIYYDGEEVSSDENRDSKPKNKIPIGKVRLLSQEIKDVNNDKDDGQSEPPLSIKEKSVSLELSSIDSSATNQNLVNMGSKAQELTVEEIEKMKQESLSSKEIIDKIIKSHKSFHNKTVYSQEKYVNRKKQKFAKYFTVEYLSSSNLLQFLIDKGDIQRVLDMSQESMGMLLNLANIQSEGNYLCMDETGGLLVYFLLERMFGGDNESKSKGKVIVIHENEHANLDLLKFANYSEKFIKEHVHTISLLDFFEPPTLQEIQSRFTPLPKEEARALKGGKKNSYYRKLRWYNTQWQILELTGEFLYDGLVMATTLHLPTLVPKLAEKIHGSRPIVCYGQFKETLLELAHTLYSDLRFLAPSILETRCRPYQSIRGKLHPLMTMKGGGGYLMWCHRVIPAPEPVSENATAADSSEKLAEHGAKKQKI
Kind of data set: crystal structure; sitting-drop vapour diffusion at 293 K, 0.1 M HEPES pH 7.5, 2% MPD, 10% PEG 6000; apo TRM6-TRM61 and TRM6-TRM61 with SAM, each at 2.2 Å; heterotetramer from symmetry-related molecules. The conditions noted are these: both partners purified.

Data set [2] concerns the molecule itself. The description is as above.

B1: TRM61 from Saccharomyces cerevisiae (enzyme, S. cerevisiae, UniProt P46959 1-383, looked up)
chain: MSTNCFSGYKDLIKEGDLTLIWVSRDNIKPVRMHSEEVFNTRYGSFPHKDIIGKPYGSQIAIRTKGSNKFAFVHVLQPTPELWTLSLPHRTQIVYTPDSSYIMQRLNCSPHSRVIEAGTGSGSFSHAFARSVGHLFSFEFHHIRYEQALEEFKEHGLIDDNVTITHRDVCQGGFLIKKGDTTSYEFGNNETAASLNANVVFLDLPAPWDAIPHLDSVISVDEKVGLCCFSPCIEQVDKTLDVLEKYGWTDVEMVEIQGRQYESRRQMVRSLNDALERLRDIKRHKLQGVERRKRMFNNTIDSNDEKVGKRNEDGVPLTEKAKFNPFGKGSRIKEGDSNYKWKEVTKMEAEIKSHTSYLTFAFKVVNRSRDDEKVNEILRSTEK
notes: TRM61, catalytic subunit of the tRNA m1A58 methyltransferase, S. cerevisiae, full length; also called TRM61 subunit; catalytic subunit; source: bacteria, expression plasmid pETDuet-TRM6-TRM61, purified as the TRM6-TRM61 complex (Ni2+-NTA, Superdex 200)
In the case of B1, the binding result in data set [1] is reported as “binds”.

B2: TRM6-TRM61 heterodimer from Saccharomyces cerevisiae (complex, S. cerevisiae)
chain 1: MNALTTIDFNQHVIVRLPSKNYKIVELKPNTSVSLGKFGAFEVNDIIGYPFGLTFEIYYDGEEVSSDENRDSKPKNKIPIGKVRLLSQEIKDVNNDKDDGQSEPPLSIKEKSVSLELSSIDSSATNQNLVNMGSKAQELTVEEIEKMKQESLSSKEIIDKIIKSHKSFHNKTVYSQEKYVNRKKQKFAKYFTVEYLSSSNLLQFLIDKGDIQRVLDMSQESMGMLLNLANIQSEGNYLCMDETGGLLVYFLLERMFGGDNESKSKGKVIVIHENEHANLDLLKFANYSEKFIKEHVHTISLLDFFEPPTLQEIQSRFTPLPKEEARALKGGKKNSYYRKLRWYNTQWQILELTGEFLYDGLVMATTLHLPTLVPKLAEKIHGSRPIVCYGQFKETLLELAHTLYSDLRFLAPSILETRCRPYQSIRGKLHPLMTMKGGGGYLMWCHRVIPAPEPVSENATAADSSEKLAEHGAKKQKI
chain 2: MSTNCFSGYKDLIKEGDLTLIWVSRDNIKPVRMHSEEVFNTRYGSFPHKDIIGKPYGSQIAIRTKGSNKFAFVHVLQPTPELWTLSLPHRTQIVYTPDSSYIMQRLNCSPHSRVIEAGTGSGSFSHAFARSVGHLFSFEFHHIRYEQALEEFKEHGLIDDNVTITHRDVCQGGFLIKKGDTTSYEFGNNETAASLNANVVFLDLPAPWDAIPHLDSVISVDEKVGLCCFSPCIEQVDKTLDVLEKYGWTDVEMVEIQGRQYESRRQMVRSLNDALERLRDIKRHKLQGVERRKRMFNNTIDSNDEKVGKRNEDGVPLTEKAKFNPFGKGSRIKEGDSNYKWKEVTKMEAEIKSHTSYLTFAFKVVNRSRDDEKVNEILRSTEK
notes: TRM6, S. cerevisiae, full length; as the chain of m1; TRM61, S. cerevisiae, full length; as the chain of m2; 1:1 heterodimer of TRM6 and TRM61 (the asymmetric unit of the crystal); two of them form the 2:2 heterotetramer; also called TRM6-TRM61 holoenzyme; TRM6-TRM61 complex; source: bacteria, expression plasmid pETDuet-TRM6-TRM61, purified (Ni2+-NTA, Superdex 200)
Turning to B2, the binding result in data set [2] is listed as “binds”.
